Reference: PMC10754010, “CRISPR/Cas9‐based genome editing of 14 lipid metabolic genes reveals a sporopollenin metabolon ZmPKSB‐ZmTKPR1‐1/‐2 required for pollen exine formation in maize”

B1: ZmTKPR1-2bio promoter probe (dsDNA)
DNA 1: ATTGCAAATCTACCCCCAACCAACCCAGCTTTGTATCTG
DNA 2: GCAGATACAAAGCTGGGTTGGTTGGGGGTAGATTTGCAA
B2: ZmTKPR1-1bio promoter probe (dsDNA)
DNA 1: TAGGAAGGAAGAAGGTTCCTGCAATGCATGTAAGGTTGGTAATTCATGCCTT
DNA 2: AAAGGCATGAATTACCAACCTTACATGCATTGCAGGAACCTTCTTCCTTCCT

Target: T1, ZmMYB84 (MBP fusion) (Zea mays, UniProt B4FQD3 1-356)
T1 sequence: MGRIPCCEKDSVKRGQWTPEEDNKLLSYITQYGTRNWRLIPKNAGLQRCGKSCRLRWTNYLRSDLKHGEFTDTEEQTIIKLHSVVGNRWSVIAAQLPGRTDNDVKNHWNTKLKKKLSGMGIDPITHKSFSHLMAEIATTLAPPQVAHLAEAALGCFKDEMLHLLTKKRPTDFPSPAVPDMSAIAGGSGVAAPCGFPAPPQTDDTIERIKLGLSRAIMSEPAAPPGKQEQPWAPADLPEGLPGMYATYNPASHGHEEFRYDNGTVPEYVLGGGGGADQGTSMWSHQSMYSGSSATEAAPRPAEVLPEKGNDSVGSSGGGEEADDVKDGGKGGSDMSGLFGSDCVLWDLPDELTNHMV
Assay: EMSA; EMSA conditions not stated (as in Hou et al., 2023)
Settings: protein: recombinant; tags: MBP (ZmMYB84 fused to the C-terminus of MBP; vector pMCSG7); label: biotin; 5' overhang 1 nt on each strand (so in the source)

Binder | binding result
B1 | binds
B2 | binds
